Numbered stars: 1 amine (or outer) side, 2 acyl side, 3 side chain; on linkers, the order of the positions; unused ones are H or OH. Bridge positions count the residues as written; N and C are the ends. Side chains are listed from the residue outwards. Ends that are not written are not given here. * marks the point of attachment. C20 diacid = O=C(O)CCCCCCCCCCCCCCCCCCC(=O)*; γGlu = O=C(O)[C@H](CCC(=O)[*:2])N[*:1]
B1: N^ε1-[(4S)-4-carboxy-4-(19-carboxynonadecanoylamino)butanoyl]-[Glu14,Arg17,Pro21,Pro27,His35]-h-amylin (peptide)
peptide: K([γGlu-C20 diacid])CNTATCATQRLAEFLRHSSPNFGAIPSSTNVGSHTY-NH2
modifications: disulfide 2-7; N-terminus assumed
SMILES: CC[C@H](C)[C@H](NC(=O)[C@H](C)NC(=O)CNC(=O)[C@H](Cc1ccccc1)NC(=O)[C@H](CC(N)=O)NC(=O)[C@@H]1CCCN1C(=O)[C@H](CO)NC(=O)[C@H](CO)NC(=O)[C@H](Cc1c[nH]cn1)NC(=O)[C@H](CCCNC(=N)N)NC(=O)[C@H](CC(C)C)NC(=O)[C@H](Cc1ccccc1)NC(=O)[C@H](CCC(=O)O)NC(=O)[C@H](C)NC(=O)[C@H](CC(C)C)NC(=O)[C@H](CCCNC(=N)N)NC(=O)[C@H](CCC(N)=O)NC(=O)[C@@H](NC(=O)[C@H](C)NC(=O)[C@@H]1CSSC[C@H](NC(=O)[C@@H](N)CCCCNC(=O)CC[C@H](NC(=O)CCCCCCCCCCCCCCCCCCC(=O)O)C(=O)O)C(=O)N[C@@H](CC(N)=O)C(=O)N[C@@H]([C@@H](C)O)C(=O)N[C@@H](C)C(=O)N[C@@H]([C@@H](C)O)C(=O)N1)[C@@H](C)O)C(=O)N1CCC[C@H]1C(=O)N[C@@H](CO)C(=O)N[C@@H](CO)C(=O)N[C@H](C(=O)N[C@@H](CC(N)=O)C(=O)N[C@H](C(=O)NCC(=O)N[C@@H](CO)C(=O)N[C@@H](Cc1c[nH]cn1)C(=O)N[C@H](C(=O)N[C@@H](Cc1ccc(O)cc1)C(N)=O)[C@@H](C)O)C(C)C)[C@@H](C)O
B2: N^ε1-[(4S)-4-carboxy-4-(19-carboxynonadecanoylamino)butanoyl]-[Glu14,Arg17,Pro21,Pro27,Pro34,Arg35]-h-amylin (peptide)
peptide: K([γGlu-C20 diacid])CNTATCATQRLAEFLRHSSPNFGAIPSSTNVGPRTY-NH2
modifications: disulfide 2-7; N-terminus assumed
SMILES: CC[C@H](C)[C@H](NC(=O)[C@H](C)NC(=O)CNC(=O)[C@H](Cc1ccccc1)NC(=O)[C@H](CC(N)=O)NC(=O)[C@@H]1CCCN1C(=O)[C@H](CO)NC(=O)[C@H](CO)NC(=O)[C@H](Cc1c[nH]cn1)NC(=O)[C@H](CCCNC(=N)N)NC(=O)[C@H](CC(C)C)NC(=O)[C@H](Cc1ccccc1)NC(=O)[C@H](CCC(=O)O)NC(=O)[C@H](C)NC(=O)[C@H](CC(C)C)NC(=O)[C@H](CCCNC(=N)N)NC(=O)[C@H](CCC(N)=O)NC(=O)[C@@H](NC(=O)[C@H](C)NC(=O)[C@@H]1CSSC[C@H](NC(=O)[C@@H](N)CCCCNC(=O)CC[C@H](NC(=O)CCCCCCCCCCCCCCCCCCC(=O)O)C(=O)O)C(=O)N[C@@H](CC(N)=O)C(=O)N[C@@H]([C@@H](C)O)C(=O)N[C@@H](C)C(=O)N[C@@H]([C@@H](C)O)C(=O)N1)[C@@H](C)O)C(=O)N1CCC[C@H]1C(=O)N[C@@H](CO)C(=O)N[C@@H](CO)C(=O)N[C@H](C(=O)N[C@@H](CC(N)=O)C(=O)N[C@H](C(=O)NCC(=O)N1CCC[C@H]1C(=O)N[C@@H](CCCNC(=N)N)C(=O)N[C@H](C(=O)N[C@@H](Cc1ccc(O)cc1)C(N)=O)[C@@H](C)O)C(C)C)[C@@H](C)O
B3: N^ε1-[(4S)-4-carboxy-4-(19-carboxynonadecanoylamino)butanoyl]-[Glu14,Arg17,Pro21,Pro27,Pro34,His35]-h-amylin (peptide)
peptide: K([γGlu-C20 diacid])CNTATCATQRLAEFLRHSSPNFGAIPSSTNVGPHTY-NH2
modifications: disulfide 2-7
B4: N^ε1-[(4S)-4-carboxy-4-(19-carboxynonadecanoylamino)butanoyl]-[His14,Arg17,Pro21,Pro27,Pro31,Pro34]-h-amylin (peptide)
peptide: K([γGlu-C20 diacid])CNTATCATQRLAHFLRHSSPNFGAIPSSTPVGPNTY-NH2
modifications: disulfide 2-7; N-terminus assumed
SMILES: CC[C@H](C)[C@H](NC(=O)[C@H](C)NC(=O)CNC(=O)[C@H](Cc1ccccc1)NC(=O)[C@H](CC(N)=O)NC(=O)[C@@H]1CCCN1C(=O)[C@H](CO)NC(=O)[C@H](CO)NC(=O)[C@H](Cc1c[nH]cn1)NC(=O)[C@H](CCCNC(=N)N)NC(=O)[C@H](CC(C)C)NC(=O)[C@H](Cc1ccccc1)NC(=O)[C@H](Cc1c[nH]cn1)NC(=O)[C@H](C)NC(=O)[C@H](CC(C)C)NC(=O)[C@H](CCCNC(=N)N)NC(=O)[C@H](CCC(N)=O)NC(=O)[C@@H](NC(=O)[C@H](C)NC(=O)[C@@H]1CSSC[C@H](NC(=O)[C@@H](N)CCCCNC(=O)CC[C@H](NC(=O)CCCCCCCCCCCCCCCCCCC(=O)O)C(=O)O)C(=O)N[C@@H](CC(N)=O)C(=O)N[C@@H]([C@@H](C)O)C(=O)N[C@@H](C)C(=O)N[C@@H]([C@@H](C)O)C(=O)N1)[C@@H](C)O)C(=O)N1CCC[C@H]1C(=O)N[C@@H](CO)C(=O)N[C@@H](CO)C(=O)N[C@H](C(=O)N1CCC[C@H]1C(=O)N[C@H](C(=O)NCC(=O)N1CCC[C@H]1C(=O)N[C@@H](CC(N)=O)C(=O)N[C@H](C(=O)N[C@@H](Cc1ccc(O)cc1)C(N)=O)[C@@H](C)O)C(C)C)[C@@H](C)O
B5: N^ε1-[(4S)-4-carboxy-4-[[(4S)-4-carboxy-4-(19-carboxynonadecanoylamino)butanoyl]amino]butanoyl]-[Arg17,Pro21,Pro27,Pro31,Pro34,Arg35]-h-amylin (peptide)
peptide: K([γGlu-γGlu-C20 diacid])CNTATCATQRLANFLRHSSPNFGAIPSSTPVGPRTY-NH2
modifications: disulfide 2-7; N-terminus assumed
SMILES: CC[C@H](C)[C@H](NC(=O)[C@H](C)NC(=O)CNC(=O)[C@H](Cc1ccccc1)NC(=O)[C@H](CC(N)=O)NC(=O)[C@@H]1CCCN1C(=O)[C@H](CO)NC(=O)[C@H](CO)NC(=O)[C@H](Cc1c[nH]cn1)NC(=O)[C@H](CCCNC(=N)N)NC(=O)[C@H](CC(C)C)NC(=O)[C@H](Cc1ccccc1)NC(=O)[C@H](CC(N)=O)NC(=O)[C@H](C)NC(=O)[C@H](CC(C)C)NC(=O)[C@H](CCCNC(=N)N)NC(=O)[C@H](CCC(N)=O)NC(=O)[C@@H](NC(=O)[C@H](C)NC(=O)[C@@H]1CSSC[C@H](NC(=O)[C@@H](N)CCCCNC(=O)CC[C@H](NC(=O)CC[C@H](NC(=O)CCCCCCCCCCCCCCCCCCC(=O)O)C(=O)O)C(=O)O)C(=O)N[C@@H](CC(N)=O)C(=O)N[C@@H]([C@@H](C)O)C(=O)N[C@@H](C)C(=O)N[C@@H]([C@@H](C)O)C(=O)N1)[C@@H](C)O)C(=O)N1CCC[C@H]1C(=O)N[C@@H](CO)C(=O)N[C@@H](CO)C(=O)N[C@H](C(=O)N1CCC[C@H]1C(=O)N[C@H](C(=O)NCC(=O)N1CCC[C@H]1C(=O)N[C@@H](CCCNC(=N)N)C(=O)N[C@H](C(=O)N[C@@H](Cc1ccc(O)cc1)C(N)=O)[C@@H](C)O)C(C)C)[C@@H](C)O
B6: N^ε1-[(4S)-4-carboxy-4-[[(4S)-4-carboxy-4-(19-carboxynonadecanoylamino)butanoyl]amino]butanoyl]-[Asp14,Arg17,Pro21,Pro27,Pro34,Arg35]-h-amylin (peptide)
peptide: K([γGlu-γGlu-C20 diacid])CNTATCATQRLADFLRHSSPNFGAIPSSTNVGPRTY-NH2
modifications: disulfide 2-7
notes: also called compound 130
B7: N^ε1-[(4S)-4-carboxy-4-[[(4S)-4-carboxy-4-(19-carboxynonadecanoylamino)butanoyl]amino]butanoyl]-[Asp14,Arg17,Pro21,Pro27,Pro34,Glu35]-h-amylin (peptide)
peptide: K([γGlu-γGlu-C20 diacid])CNTATCATQRLADFLRHSSPNFGAIPSSTNVGPETY-NH2
modifications: disulfide 2-7

Each binder was assayed against T1, rat calcitonin receptor (rat, UniProt P32214 25-516) (assay: ratio of IC50 on rat calcitonin receptor to IC50 on rat amylin receptor).
T1 construct: whole, on cells; Membranes prepared from transiently transfected BHK tk'ts 13 cells; also called rCTR; rat calcitonin (a) receptor
T1 sequence (looked up): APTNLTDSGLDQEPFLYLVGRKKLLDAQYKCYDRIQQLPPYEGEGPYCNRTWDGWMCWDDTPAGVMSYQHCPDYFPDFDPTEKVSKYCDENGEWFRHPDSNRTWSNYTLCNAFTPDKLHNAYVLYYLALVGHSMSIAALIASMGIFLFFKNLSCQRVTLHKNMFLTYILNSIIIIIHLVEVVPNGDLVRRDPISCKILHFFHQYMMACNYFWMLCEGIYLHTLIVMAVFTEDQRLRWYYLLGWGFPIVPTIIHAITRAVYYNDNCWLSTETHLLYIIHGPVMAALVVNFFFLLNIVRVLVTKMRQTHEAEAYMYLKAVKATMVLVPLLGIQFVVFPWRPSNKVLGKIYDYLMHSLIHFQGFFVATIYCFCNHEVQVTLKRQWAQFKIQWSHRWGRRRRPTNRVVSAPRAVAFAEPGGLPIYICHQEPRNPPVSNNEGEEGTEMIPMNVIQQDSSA

Binder | Ratio rCT/rAmylin binding
B1 | 22.7
B2 | 45.5
B3 | 52.2
B4 | 72.4
B5 | 137
B6 | 240
B7 | 98.5

What follows are binders tested against T2, human calcitonin receptor (human, UniProt P30988 25-474) (assay: ratio of IC50 on human calcitonin receptor to IC50 on human amylin receptor).
T2 construct: whole, on cells; Membranes from stably transfected BHK cells; also called hCTR; hCT
T2 sequence (looked up): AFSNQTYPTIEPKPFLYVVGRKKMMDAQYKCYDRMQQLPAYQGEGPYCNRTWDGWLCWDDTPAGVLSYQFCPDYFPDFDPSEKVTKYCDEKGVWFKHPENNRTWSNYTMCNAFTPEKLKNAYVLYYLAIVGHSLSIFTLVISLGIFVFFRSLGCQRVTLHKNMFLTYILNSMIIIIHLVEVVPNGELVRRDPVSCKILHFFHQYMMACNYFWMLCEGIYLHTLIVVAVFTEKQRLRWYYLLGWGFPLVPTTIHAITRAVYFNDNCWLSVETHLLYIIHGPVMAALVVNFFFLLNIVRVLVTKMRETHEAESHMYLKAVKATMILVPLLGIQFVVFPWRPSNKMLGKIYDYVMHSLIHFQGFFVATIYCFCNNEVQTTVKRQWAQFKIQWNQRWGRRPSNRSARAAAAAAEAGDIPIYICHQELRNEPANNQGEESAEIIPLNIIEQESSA
Procedure, shortened: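 Scintillation proximity competition binding on cell membranes at 35 ng/μL with SPA beads, in 50 mM Hepes pH 7.4, 1 mM CaCl2, 5 mM MgCl₂, 0.1% OA, 0.02% Tween20. Incubated 120 min at 25° C with shaking. IC₅₀ from one-site competition fit.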

Binder | Ratio hCT/hAmylin binding
B1 | 26.4
B2 | 38.6
B3 | 21.2
B4 | 24.8
B5 | 48.6
B6 | 280
B7 | 49.8

These binders were tested against T1, rat calcitonin receptor (assay: SPA competition vs 125I-calcitonin, membranes (Assay VIII)).

Binder | IC50
B1 | 26.3 nM
B2 | 15.4 nM
B3 | 5.43 nM
B4 | 9.05 nM
B5 | 52.4 nM
B6 | 223 nM
B7 | 31.9 nM

What follows are binders tested against T3, rat amylin receptor (rat calcitonin receptor + rat RAMP 3) (rat, UniProt P32214 25-516; Q9JJ73 23-147) (assay: SPA competition vs 125I-rat amylin, membranes (Assay VI)).
T3 construct: whole, on cells; Membranes prepared from transiently transfected BHK tk'ts 13 cells; also called rAmylin-R; rat amylin 3(a) receptor
T3 sequence (looked up) 1: T1 sequence (looked up)
T3 sequence (looked up) 2: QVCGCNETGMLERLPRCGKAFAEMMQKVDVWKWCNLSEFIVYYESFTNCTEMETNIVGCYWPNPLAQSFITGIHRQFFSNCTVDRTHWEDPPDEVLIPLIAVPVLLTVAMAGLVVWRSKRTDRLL

Binder | IC50
B1 | 1.16 nM
B2 | 0.339 nM
B3 | 0.104 nM
B4 | 0.125 nM
B5 | 0.381 nM
B6 | 0.93 nM
B7 | 0.324 nM

— patent publication US20140087995A1 (published 2014)
